Experimental data: patent publication US10801027B2, “Inhibitors of SRSF1 to treat neurodegenerative disorders” (University of Sheffield, priority 2016, dated 2020)

Columns and labels:
G4C2×38 transcripts = test: Cytoplasmic fractionation and qRT-PCR of G4C2×38 transcripts in N2A cells; format: cell-based, mouse
Description: Neuro-2a cells were split into each well of 6 well plates (2×10^6 cells/well) and transfected for 72 hours with 1 μg pcDNA6.2-GW/EmGFP-Control miR RNAi, pcDNA6.2-GW/EmGFP-mouse SRSF1 miR1+2 RNAi, p3×FLAG/SRSF1 (11-196), or p3×FLAG/SRSF1 (11-196)-m4 and 1 μg pcDNA 3.1/RAN-G4C2×38-sense or RAN-C4G2×39-antisense using 3 μg PEI/1 μg DNA and one tenth medium volume OptiMEM. iNeurons were cultured in 6-well plates and transduced with 5MOI human LV-SRSF1-RNAi lentivirus for 5 days.
Cytoplasmic fractionation was performed as follows. Cells were removed from the plate using DEPC PBS and pelleted by centrifugation at 800×g for 5 minutes. Cell pellets were quickly washed with hypotonic lysis buffer (10 mM HEPES pH 7.9, 1.5 mM MgCl2, 10 mM KCl, 0.5 mM DTT). Cell pellets were then lysed in hypotonic lysis buffer containing 0.16 U/μL Ribosafe RNase inhibitors (Bioline), 2 mM PMSF (Sigma) and […]™ Protease Inhibitor Cocktail tablets, EDTA free (Sigma) according to manufacturer's instructions. Cells were lysed gently using a cut P1000 tip ensuring no physical force was exerted on the cell pellet. For fly tissue, da-GAL4 was used to drive transgene expression in all tissues, and 10 third instar larvae were homogenised and lysed using the same buffer and a dounce homogenizer. The lysate then underwent differential centrifugation (1,500 g, 3 min, 4° C. then 3,500 g […], 8 min, 4° C. and then 17,000 g, 1 min, 4° C.) transferring the supernatant to a fresh tube after each centrifugation. The supernatant was then added to PureZOL (Biorad) to extract RNA. […]
Following RNA quantification, 2 μg RNA was converted to cDNA using BioScript™ Reverse Transcriptase (Bioline). qRT-PCR primers were designed using Primer-BLAST (NCBI) and validated using a 1 in 4 serial template dilution series (standard curve with R^2>0.97). qRT-PCR reactions were performed in duplicate for 3 independent biological repeats using the Brilliant III Ultra-Fast SYBR® Green QPCR Master Mix (Agilent Technologies) on a MX3000P QPCR system (Statagene). qRT-PCR data was analysed using MxPro (Stratagene) and GraphPad Prism (Version 6). […]

G4C2×5 repeat RNA = test: Protein:RNA UV crosslinking assay, sense probe; format: binding; settings: purified recombinant hexa-histidine-tagged protein
Description: Recombinant proteins expressed in 1.51 of E. coli BL21 (DE3)-RP (Novagen) cell cultures were purified by IMAC chromatography on TALON/Cobalt beads (Clontech) in 1M NaCl containing buffers to prevent the potential co-purification of E. coli RNA (Lysis buffer: 50 mM TRIS-HCl pH8.0, 1M NaCl, 0.5% Triton X-100; Wash buffer: 50 mM TRIS-HCl pH8.0, 1M NaCl, 0.5% Triton X-100, 5 mM imidazole). […] Binding reactions were resolved on SDS-PAGE prior to analysis by Coomassie staining and Phosphoimaging.

[1] = test system: G4C2-sense or C4G2-antisense repeat transcripts; test: RNA immunoprecipitation (RIP) assays in N2A cells; format: binding, mouse; settings: 15 vs 38/39 repeats
Description: Cells were split into 1×T-175 flasks/treatment (5×10^6 cells/plate) and transfected with 30 μg p3×FLAG, p3×FLAG/SRSF1 (11-196) or p3×FLAG/SRSF1 (11-196)-m4 and 10 μg pcDNA 3.1/RAN-G4C2×15-sense, RAN-G4C2×38-sense, RAN-G4C2×15-antisense or RAN-C4G2×39-antisense using 3 μg PEI/1 μg […] and one tenth volume OptiMEM.
Protein-RNA complexes were extracted from Neuro-2a cells 48 hours after transfection. Protein-RNA complexes were cross-linked using 1% formaldehyde for 10 minutes, shaking at room temperature. Residual formaldehyde was quenched with 250 mM Glycine at room temperature for 5 minutes, shaking. Cross-linked cells were subsequently washed in ice cold DEPC treated PBS and scraped into ice cold RNase free lysis buffer (DEPC treated water containing 50 mM Hepes pH7.5, 150 mM NaCl, 10% glycerol, 0.5% triton X-100, 1 mM EDTA, 1 mM DTT, 1 μl RNase inhibitor, protease inhibitor cocktail). Cells were passed through a 21G gauge needle 10 times and left to lyse on ice for 10 minutes, followed by centrifugation at maximum speed at 4° C. for five minutes and quantification using Bradford Reagent. 2.5 mg of total protein at a 1 mg/ml concentration was incubated with 40 μl anti-FLAG® M2 affinity resin slurry (which had been blocked overnight with 1% BSA and 5 μl/ml ssDNA) overnight at 4° C. on a rotating wheel. One 15th of the total protein extract was retained for an input sample. […]

B1: SRSF1-m4: quadruple SRSF1 point mutant aa11-196, dominant negative, does not interact with TAP/NXF1 (protein)
chain: AGNNDCRIYVGNLPPDIRTKDIEDVFYKYGAIRDIDLKNRRGGPPFAFVEFEDPRDAEDAVYGRDGYDYDGYRLRVEFPASGAGTGRGGGGGGGGGAPRGRYGPPSAASENRVVVSGLPPSGSWQDLKDHMREAGDVCYADVYRDGTGVVEFVRKEDMTYAVRKLDNTKFRSHEGETAYIRVKVDG
modifications: left off: small tags and cut ends
G4C2×38 transcripts; G4C2×38, RNAi vs Ctrl-RNAi, SRSF1-m4 vs SRSF1
  cytoplasmic repeat transcript levels normalized to total levels: marked reduction
G4C2×38 transcripts; normalized to U1 snRNA
  cytoplasmic levels of G4C2×38 transcripts: markedly reduced
  total levels of G4C2×38 transcripts: not significantly altered
G4C2×5 repeat RNA
  direct interaction with sense G4C2×5 repeat RNA: retains the ability to directly interact
[1]
  immunoprecipitated repeat transcripts: length-dependent repeat-RNA sequestration
